According to patent publication US20260014269A1 (NECTIN THERAPEUTICS, published 2026):
Numbering of substitutions follows the chain as printed.

T1: recombinant cynomolgus Nectin-4 (Acro Biosystems) (cynomolgus, UniProt A0A2K5WES1 32-349)
T1 construct: Bought recombinant antigen used as analyte in SPR; also called Cyno Nectin-4
T1 sequence: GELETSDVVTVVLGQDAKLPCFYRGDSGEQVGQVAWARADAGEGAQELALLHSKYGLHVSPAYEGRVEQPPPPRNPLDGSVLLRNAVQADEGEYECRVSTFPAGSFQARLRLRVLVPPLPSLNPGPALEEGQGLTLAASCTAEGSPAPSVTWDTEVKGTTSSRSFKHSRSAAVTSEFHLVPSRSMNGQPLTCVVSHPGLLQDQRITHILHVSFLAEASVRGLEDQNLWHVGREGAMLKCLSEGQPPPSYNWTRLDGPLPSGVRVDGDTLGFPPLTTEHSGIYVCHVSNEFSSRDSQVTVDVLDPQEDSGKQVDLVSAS

T2: recombinant human Nectin-4 (Acro Biosystems) (human, UniProt Q96NY8 32-349)
T2 construct: Bought recombinant antigen used as analyte in SPR; also called PVRL4
T2 sequence (looked up): T1 sequence with A39V, V230I

T3: Nectin-4 on MDA-MB-468 cells (human, UniProt Q96NY8 32-510)
T3 construct: whole, on cells; also called Nectin-4 (on-cell)
T3 sequence (looked up): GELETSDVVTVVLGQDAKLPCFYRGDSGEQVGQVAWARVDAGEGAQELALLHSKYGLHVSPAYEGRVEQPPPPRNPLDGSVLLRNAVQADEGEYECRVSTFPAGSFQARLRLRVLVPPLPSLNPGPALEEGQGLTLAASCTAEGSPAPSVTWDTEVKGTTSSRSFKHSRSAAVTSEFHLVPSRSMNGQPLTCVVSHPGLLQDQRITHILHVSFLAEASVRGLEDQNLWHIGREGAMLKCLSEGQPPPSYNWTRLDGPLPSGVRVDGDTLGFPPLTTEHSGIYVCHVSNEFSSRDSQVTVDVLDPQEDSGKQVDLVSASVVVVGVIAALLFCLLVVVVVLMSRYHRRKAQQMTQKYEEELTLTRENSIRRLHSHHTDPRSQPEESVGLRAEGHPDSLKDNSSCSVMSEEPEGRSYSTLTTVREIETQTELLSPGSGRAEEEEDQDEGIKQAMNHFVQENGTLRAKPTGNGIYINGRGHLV

B1: NTX1105 humanized variant VH4/Vκ4 (antibody, V domains shown)
VH: QVQLVQSGSELKKPGASVKVSCKASGYTFTSYYIHWVRQAPGQGLEWIGWIYPGNVNTKYNERFKGRVTITADKSTNTAYMELSSLRSEDTAVYYCARSNPYVMDYWGQGTSVTVSS
VL: DIQMTQSPSTLSASVGDRVTITCRASQSVNNDVAWYQQKPGKAPKLLMYYASNRFTGVPDRFSGSGYGTDFTLTISSLQAEDLAIYFCQQAYRSPYTFGQGTKLEIK
notes: Humanized IgG
B2: NTX1105 humanized variant VH4/Vκ5 (antibody, V domains shown)
VH: B1 VH
VL: B1 VL with L83V, I85V
notes: also called NTX1105 (H4/k5); H4K5
B3: NTX1105 humanized variant VH4/Vκ1 (antibody, V domains shown)
VH: B1 VH
VL: B1 VL with D1S, Q3V, T10F, S12L, V15A, R24K, K42L, K45E, S63T
notes: Humanized IgG
B4: NTX1105 humanized variant VH4/Vκ3 (antibody, V domains shown)
VH: B1 VH
VL: B1 VL with R24K
notes: Humanized IgG
B5: NTX1105 humanized variant VH5/Vκ5 (antibody, V domains shown)
VH: B1 VH with I48M, K65Q, N77S
VL: B1 VL with L83V, I85V
notes: Humanized IgG; also called H5K5
B6: NTX1105 humanized variant VH5/Vκ4 (antibody, V domains shown)
VH: B1 VH with I48M, K65Q, N77S
VL: B1 VL
notes: Humanized IgG
B7: NTX1105 (VH0/Vκ0) parental chimeric anti-Nectin-4 antibody, clone-11 (VH0/Vκ0)-hIgG1 (antibody, V domains shown)
VH: QVQLQQSGPELVKPETSVKISCKASGYTFTSYYIHWVKQRPGQGLEWIGWIYPGNVNTKYNERFKGKATLTADKSSNTAHMQLTSLTSEDSAVYFCARSNPYVMDYWGQGTSVTVSS
VL: SIVMTQTPKFLLVSAGDRVTITCKASQSVNNDVAWYQQKPGLSPELLMYYASNRFTGVPDRFTGSGYGTDFTFTISSVQAEDLAIYFCQQAYRSPYTFGGGTKLEIQR
notes: Tested from supernatants of transfected cell cultures; also called chimeric antibody; parental mAb
B8: NTX1105 (H4K5) ADC, conjugated to MMAE at the same DAR as PADCEV (antibody, V domains shown)
VH: B1 VH
VL: B1 VL with L83V, I85V
notes: also called NTX1105-MMAE; NTX1105-MC-VC-PAB-MMAE DAR4

target: T1, recombinant cynomolgus Nectin-4 (Acro …); test: SPR, Biacore T200 single cycle kinetics at 25 C, IgG from culture supernatant, Nectin-4 as analyte
Method: (§1) In order to assess the binding of all of the variants to human or cynomolgus Nectin-4 antigen and select lead humanized IgGs with the closest affinity to the chimeric (VH0/Vκ0) antibody, single cycle kinetic was performed on supernatants from transfected cell cultures. Kinetic experiments were performed at 25° C. on a Biacore T200 running Biacore T200Control software V2.0.1 and Evaluation software V3.0 (Cytiva, Marlborough, USA). Single cycle kinetic data was obtained using recombinant human (Acro Biosystems, Newark, USA) or cynomolgus Nectin-4 (Acro Biosystems, Newark, USA) as the analyte injected at a flow rate of 40 μl/min to minimize any potential mass transfer effects. A four point, two-fold dilution range from 1.25 nM to 10 nM of antigen in running buffer was used without regeneration between each concentration. The association phases were monitored for 150 seconds for each of the four injections of increasing concentrations of antigen and a single dissociation phase was measured for 250 seconds following the last injection of antigen (in order to improve fit the dissociation was cropped to 175 seconds for human Nectin-4). Regeneration of the sensor chip surface was conducted using a single injection of 3 M MgCl₂. Based on relative KD from Biacore single cycle kinetics analysis on supernatants, six humanized variants (VH4/Vκ1, VH4/Vκ3, VH4/Vκ4, VH4/Vκ5, VH5/Vκ4 and VH5/Vκ5) were selected as lead IgGs for scaled-up production and purification.

Compared with B1, B2 is 1.6-fold lower in Kd: 21.3 nM for the first, 13.7 nM for the second.

B3 and B4 are within 1.5-fold of each other in Kd: 19.3 nM for the first, 19.4 nM for the second.

Compared with B5, B6 is 1.5-fold higher in Kd: 12.7 nM for the first, 19.2 nM for the second. The first binds more tightly here.

B7 gave a Kd of 12.1 nM.

target: T2, recombinant human Nectin-4 (Acro …); test: as above
Method: as §1

B1 and B2 are within 1.5-fold of each other in Kd: 18 nM for the first, 12.2 nM for the second.

B3 and B4 are within 1.5-fold of each other in Kd: 15.4 nM for the first, 15.5 nM for the second.

Compared with B5, B6 is 1.5-fold higher in Kd: 11.5 nM for the first, 17.7 nM for the second.

In the case of B7, the Kd is reported as 10.9 nM.

target: T3, Nectin-4 on MDA-MB-468 cells; test: flow cytometry staining of MDA-MB-468 cells, anti-human IgG Fab Alexa Fluor 647 detection

For Enfortumab-vedotin (PADCEV) (antibody), the EC50 was 0.01 nM.

For Enfortumab-vedotin (PADCEV) (antibody), the fold stronger EC-50 than NTX1105 conjugated to MMAE was 20 fold.

target: T3, Nectin-4 on MDA-MB-468 cells; test: flow cytometry on MDA-MB-468 cells, 3-fold dilutions from 3 ug/ml, detection with Alexa Fluor 647 Fab goat anti-human IgG (H+L); y axis % Bound
Method: Binding was evaluated on MDA-MB-468 cells. Briefly, 5*10+ cells per well were stained using either PADCEV or NTX1105 conjugated to MMAE at the same DAR as PADCEV. The ADCs were added at concentrations starting 3 μg/ml using 3-fold dilutions. […] After 72 hours, the assay was harvested and tumor cell killing was evaluated using CellTiter-Glo® 2.0 Cell Viability Assay-(Promega G9242).

B8 was tested, and the “EC50 (read off the curve)” value was ~0.01 µg/mL.
